In patent publication US20240218065A1 (SHENGHE CHINA BIOPHARMACEUTICAL, published 2024):
Where a chain is given by its changes, count along the chain named. Where two headings read alike, the source gives them in different places. Each block holds one binder with its values, some of them ahead of it.

Tests used:
Human-GPC3-His [1] = target: T1, Human-GPC3-His (human, UniProt P51654 25-559, limits assumed); assay: ELISA: Human-GPC3-His coated at 0.5 µg/mL, antibody titrated 3-fold from 10 µg/mL, HRP goat anti-human IgG-Fc, OD450-OD570
T1 construct: Coated on the ELISA plate; also called GPC-3 protein; GPC3 protein; not shown: His tag
T1 sequence (P51654 25-559 limits assumed): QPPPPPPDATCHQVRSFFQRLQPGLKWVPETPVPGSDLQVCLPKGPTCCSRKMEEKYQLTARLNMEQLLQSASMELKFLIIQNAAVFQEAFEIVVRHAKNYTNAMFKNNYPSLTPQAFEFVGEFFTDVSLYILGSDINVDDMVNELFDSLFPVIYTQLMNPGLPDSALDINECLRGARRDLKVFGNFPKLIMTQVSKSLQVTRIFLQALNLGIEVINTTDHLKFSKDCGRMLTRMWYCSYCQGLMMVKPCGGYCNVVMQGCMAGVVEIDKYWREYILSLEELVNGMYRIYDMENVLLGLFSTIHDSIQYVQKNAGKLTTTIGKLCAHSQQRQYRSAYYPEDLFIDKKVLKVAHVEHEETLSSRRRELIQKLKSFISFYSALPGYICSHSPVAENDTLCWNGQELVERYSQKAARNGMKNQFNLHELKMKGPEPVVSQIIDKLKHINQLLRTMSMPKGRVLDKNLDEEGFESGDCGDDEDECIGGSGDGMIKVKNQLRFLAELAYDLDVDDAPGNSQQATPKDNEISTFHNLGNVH
Method: (§1) Human-GPC3-His was diluted to 0.5 μg/mL with PBS buffer at pH 7.4, added into the 96-well ELISA plate at 100 μL per well, coated overnight at 4° C., and blocked with 1% BSA blocking solution for 1 hour. The plate was washed 3 times with PBST, and the constructed antibody was diluted to 10 μg/mL with 0.5% BSA sample diluent as the starting concentration, and then diluted by 3-fold gradient (11 gradients in total) and incubated at 37° C. for 1 h at 100 μL per well. The plate was washed 3 times with PBST, and then HRP-labelled goat anti-human IgG-Fc was diluted with the sample diluent at 1:20000. 100 μL was added into each well, and incubated at room temperature for 1 hour. A negative control (blank well and IgG1 isotype control) and a positive control were set, and the positive control was a GPC-3 and CD3 bispecial antibody from the literature Hs, A, et al. “Engineering a bispecific antibody with a common light chain: Identification and optimization of an anti-CD3 epsilon and anti-GPC3 bispecific antibody, ERY974.” Methods 154 (2019): 10-20. (The GPC-3 and CD3 bispecial antibody sequence consists of SEQ ID No. 22, SEQ ID No. 23, and SEQ ID No. 24). The plate was washed 4 times with PBST, and 100 μL of TMB substrate was added into each well, and incubated at room temperature without light for 10 minutes. 100 μL of 1 M HCl solution was added into each well to terminate the color development reaction. The absorbance value of each well in the 96-well plate was determined by selecting the wavelength of 450 nm and the reference wavelength of 570 nm on a multifunctional enzyme marker, and the absorbance value (OD)=OD₄₅₀ₙₘ−OD₅₇₀ₙₘ. The logarithm of the concentration of the constructed antibody was taken as the abscissa, and the measured absorbance value of each well was taken as the ordinate, and the Sigmoidaldose-response (Variable Slope) method (GraphPad Prism software, GraphPad Software, San Diego, California) was selected for nonlinear regression to obtain the binding curve of the target antibody to the GPC-3 protein.

Human-GPC3-His [2] = target: T1, Human-GPC3-His; assay: as above; remark: listed apart in the source
Method: as §1

Human-GPC3-His [3] = target: T1, Human-GPC3-His; assay: as above; remark: listed apart in the source
Method: as §1

[4] = target: T2, Human-NKP30-His (Kactus, cat: NKP-HM430) (human, UniProt O14931 19-138, limits assumed); assay: ELISA: Human-NKP30-His coated, antibody titrated 3-fold from 10 µg/mL, HRP goat anti-human IgG-Fc, OD450-OD570
T2 construct: also called NKP30 protein; NKP30-his protein; not shown: His tag
T2 sequence (looked up): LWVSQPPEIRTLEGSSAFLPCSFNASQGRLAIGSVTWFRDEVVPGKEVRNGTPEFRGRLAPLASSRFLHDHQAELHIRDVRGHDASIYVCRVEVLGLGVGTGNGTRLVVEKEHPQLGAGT
Method: Human-NKP30-His (Kactus, cat: NKP-HM430) was diluted to […] with PBS buffer at pH 7.4, added into the 96-well ELISA plate at 100 μL per well, coated overnight at 4° C., and blocked with 1% BSA blocking solution for 1 hour. The plate was washed 3 times with PBST, and the constructed antibodies were diluted to 10 μg/mL with 0.5% BSA sample diluent as the starting concentration, and then diluted by 3-fold gradient (11 gradients in total). A negative control (blank well and IgG1 isotype control) and a positive control were set, and the positive control was a NKP30 humanized antibody (sequence shown in SEQ ID No. 28), and incubated at 37° C. for 1 h at 100 μL per well. The plate was washed 3 times with PBST, and then HRP-labelled goat anti-human IgG-Fc was diluted with the sample diluent at 1:20000. 100 μL was added into each well, and incubated at room temperature for 1 hour. The plate was washed 4 times with PBST, and 100 μL of TMB substrate was added into each well, and incubated at room temperature without light for 10 minutes. 100 μL of 1 M HCl solution was added into each well to terminate the color development reaction. The absorbance value of each well in the 96-well plate was determined by selecting the wavelength of 450 nm and the reference wavelength of 570 nm on a multifunctional enzyme marker, and the absorbance value (OD)=OD₄₅₀ₙₘ−OD₅₇₀ₙₘ. The logarithm of the concentration of the constructed antibody was taken as the abscissa, and the measured absorbance value of each well was taken as the ordinate, and the Sigmoidaldose-response (Variable Slope) method (GraphPad Prism software, GraphPad Software, San Diego, California) was selected for nonlinear regression to obtain the binding curve of the target antibody to NKP30.

- EC50 (read off the curve) (Human-GPC3-His [1]): ~0.03 µg/mL
- EC50 (read off the curve) (Human-GPC3-His [2]): ~0.01 µg/mL
- EC50 (read off the curve) (Human-GPC3-His [3]): ~0.03 µg/mL
B1: GPC-3 and CD3 bispecial antibody (ERY974) (bispecific antibody, human IgG4 S228P, kappa, N297A)
chain 1: QVQLVQSGAEVKKPGASVTVSCKASGYTFTDYEMHWIRQPPGEGLEWIGAIDGPTPDTAYSEKFKGRVTLTADKSTSTAYMELSSLTSEDTAVYYCTRFYSYTYWGQGTLVTVSSASTKGPSVFPLAPCSRSTSESTAALGCLVKDYFPEPVTVSWNSGALTSGVHTFPAVLQSSGLYSLSSVVTVPSSSLGTQTYTCNVDHKPSNTKVDKRVESKYGPPCPPCPAPEFRGGPKVFLFPPKPKDTLMISRTPEVTCVVVDVSQEDPEVQFNWYVDGVEVHNAKTKPREEQFASTYRVVSVLTVLHQDWLNGKEYKCKVSNKGLPSSIEKTISKAKGQPREPQVYTLPPSQEEMTKNQVSLTCLVKGFYPSDIAVEWESNGQPENNYKTTPPVLDSDGSFFLYSKLTVDKSRWQEGNVFSCSVMHEALHNHYTQESLSLSP
chain 2: QVQLVESGGGVVQPGGSLRLSCAASGFTFSNAWMHWVRQAPGKGLEWVAQIKDKSQNYATYVAESVKGRFTISRADSKNSIYLQMNSLKTEDTAVYYCRYVHYAAGYGVDIWGQGTTVTVSSASTKGPSVFPLAPCSRSTSESTAALGCLVKDYFPEPVTVSWNSGALTSGVHTFPAVLQSSGLYSLSSVVTVPSSSLGTKTYTCNVDHKPSNTKVDKRVESKYGPPCPPCPAPEFRGGPKVFLFPPKPKDTLMISRTPEVTCVVVDVSQEDPEVQFNWYVDGVEVHNAKTKPREEQFASTYRVVSSLTVLHQDWLNGKEYKCKVSNKGLPSSIEKTISKAKGQPREPQVYTLPPSQKEMTKNQVSLTCLVKGFYPSDIAVEWESNGQPENNYKTTPPVLDSSGSFFLYSKLTVDKSRWQEGNVFSCSVMHEALHNHYTQKSLSLSP
chain 3: DIVMTQSPLSLPVTPGEPASISCRSSQPLVHSNRNTYLHWYQQKPGQAPRLLIYKVSNRFSGVPDRFSGSGSGTDFTLKISRVEAEDVGVYYCGQGTQVPYTFGQGTKLEIKRTVAAPSVFIFPPSDEQLKSGTASVVCLLNNFYPREAKVQWKVDNALQSGNSQESVTEQDSKDSTYSLSSTLTLSKADYEKHKVYACEVTHQGLSSPVTKSFNRGEC
notes: also called anti-CD3 epsilon and anti-GPC3 bispecific antibody

- EC50 (read off the curve) (Human-GPC3-His [2]): ~0.01 µg/mL
- EC50 (read off the curve) [4]: ~0.03 µg/mL
B2: GN15-G (bispecific antibody, human IgG1, kappa)
light 1: QVQLVQSGAEVKKPGASVKVSCKASGYTFTDYEMHWVRQAPGQGLEWMGALDPKTGDTAYSQKFKGRVTLTADKSTSTAYMELSSLTSEDTAVYYCTRFYSYTYWGQGTLVTVSSRTVAAPSVFIFPPSDEQLKSGTASVVCLLNNFYPREAKVQWKVDNALQSGNSQESVTEQDSKDSTYSLSSTLTLSKADYEKHKVYACEVTHQGLSSPVTKSFNRGECGGGGSGGGGSGGGGSGGGGSEVQLVESGGGLVQPGGSLRLSCAASGITFSRSVMGWFRQAPGKLRELVAGITSDDNTDYADSVKGRFTISRDNSKNTLYLQMNSLRAEDTAVYYCNILPDSRLGWGQGTLVTVSS
heavy 1: not shown
heavy 2: QVQLVQSGAEVKKPGASVKVSCKASGYTFTDYEMHWVRQAPGQGLEWMGALDPKTGDTAYSQKFKGRVTLTADKSTSTAYMELSSLTSEDTAVYYCTRFYSYTYWGQGTLVTVSSASTKGPSVFPLAPSSKSTSGGTAALGCLVKDYFPEPVTVSWNSGALTSGVHTFPAVLQSSGLYSLSSVVTVPSSSLGTQTYICNVNHKPSNTKVDKKVEPKSCDKTHTCPPCPGGGGSGGGGSPALLLLLLLRPPATRGITCPPPMSVEHADIWVKSYSLYSRERYICNSGFKRKAGTSSLTECVLNKATNVAHWTTPSLKCIRDPALVHQRPAPPSTVTTAGVTPQPESLSPSGKEGGGGSGGGGSAPELLGGPSVFLFPPKPKDTLMISRTPEVTCVVVDVSHEDPEVKFNWYVDGVEVHNAKTKPREEQYNSTYRVVSVLTVLHQDWLNGKEYKCKVSNKALPAPIEKTISKAKGQPREPQVYTLPPSRDELTKNQVSLTCLVKGFYPSDIAVEWESNGQPENNYKTTPPVLDSDGSFFLASKLTVDKSRWQQGNVFSCSVMHEALHNHYTQKSLSLSPGK
light 2: B1 chain 3 with I2V, P28S, Q42L, A48S, R50Q, G94S, G96N, Q98H, Y101P
notes: Trifunctional antibody against GPC-3 and NKP30 with IL-15 and IL-15Rα sushi between CH1 and CH2; also called constructed antibody GN15-G; multifunctional antibody

- EC50 (read off the curve) [4]: ~0.03 µg/mL
- EC50 (read off the curve) (Human-GPC3-His [3]): ~0.02 µg/mL
B3: GN15-F (bispecific antibody, human IgG1, kappa)
light: B1 chain 3 with I2V, P28S, Q42L, A48S, R50Q, G94S, G96N, Q98H, Y101P
heavy 1: not shown
heavy 2: B2 heavy 2
notes: Trifunctional antibody against GPC-3 and NKP30 with IL-15 and IL-15Rα sushi between CH1 and CH2; also called constructed antibody GN15-F; multifunctional antibody
